Here are results for 1 substance from article PMC5487423.

The assay concerns the target P991_AMBCA, purified, C-terminal StrepII-8xHis tag (Amblyomma cajennense). The assay can be described thus: BLI; Kd and koff determination: His-tagged evasin immobilised on Ni-NTA biosensor (OctetRed), chemokine dilutions from 300 nM to 0.4 nM, 30 °C, same buffer as the screen; reference protein subtracted; 1:1 model with global fit, or steady state; each experiment once.

For the substance “CCL13 (from UniProt Q99616 17-98) (ligand)”, the dissociation half-life was 2.72 h.
